{"source": "the DeepSol protein solubility set", "experiment": "soluble on expression in E. coli; label from the status in PepcDB or PDB records"}
{"sequence": "MDNTNTGLKLFVLDTNILMHDPTAIYHFDEHDIYLPMVVLEELDSHKTGTSELARNVRQTNRMLVELMSNATHDQIVSGLPIPSYINSSNKKCSGRLFFQTDEFDQVVPSTLPGHKVDNTILATALGLQKKYYGKRQVIIISKDINLRIKAGILGIHAEDYYNDQVLDDVNLLHRGLHILDNNFWDSHAKDMGSWQESGKTFYKVSGPLVSQWNPNDCLSTEDDQFQALVKKIDGPNAVVQLIRDYTQPKHSVWGITARNREQNFSLNLLLDPDIDFVSLQGSAGTGKTLLTIAAGLTQVMDQNRYSEILMTRVTIPVGEDIGFLPGTEEEKMTPWMGALMDNLEVLHSSQVGGSFGRGATQDLLQNKIKIRSLNFMRGRTFLNRYIIIDEAQNLTSKQIKTLVTRAGPGSKIICLGDIKQIDTPYLTETTSGLTFAVDRFKSWEHSAHMTLTRGERSRLAFYAAEHL", "values": [{"measurement": "soluble on expression in E. coli", "value": "not soluble"}]}
{"sequence": "MSLALSRIDGQDELFVGGLWALRRSDSLTDRRITHVLSLVPFDISSLKNFKDEPWIDYGKDFRHQLIDIDDVEDSDLLIELPKAVRFIEEGLGANYMEHADDDGGVSLEKDVDVVEKKRKKKGGVFVHCAVGKSRSVSAVIAYLLRRYPSRFDPNITPTAISDPSQSTGSETSAEKRSRKETAQEAVHAALTYVRRTRPMAEPNEGFMEQLALWWEMEEGHHHHHH", "values": [{"measurement": "soluble on expression in E. coli", "value": "not soluble"}]}
{"sequence": "SLNGRPTTPNGAAGKWGDYRKCDTPKRTVDHMLNHIADTHSDIDFIIWTGDLPPHDVWNQTKEENLKVLKETVTQMTEKFPGIPIFPALGNHESAPVNSFPPPYVQQVDSSIAWLYDELDVQWRRWLPASVSHTVRRGAFYSVLVRPGYRIISLNMNYCNNKNWWLLLNSTDPATELQWFIYELQSAEFAGEKVHVIGHIPPGHSDCLKVWSRNYYKIVSRFESTITAQFFGHTHFDEFEVFYDPHDLSRATSIAYIGPSVTPYNDLNPGYRIYYIDGDHDETTRLVVDHESWIMNLKEANLYDYPIWYKLYSTRAAYGMKGLRPADWDQLINNMTDSKELFDLYYKHYWKASPVKPECDYECRKRILCDAKSGRSHDRKYFCEEVEAKIDESNKGWKDWLFS", "values": [{"measurement": "soluble on expression in E. coli", "value": "not soluble"}]}
{"sequence": "MGSSHHHHHHSSGLVPRGSHMYETYHSGWIECITGSMFSGKSEELIRRLRRGIYAKQKVVVFKPAIDDRYHKEKVVSHNGNAIEAINISKASEIMTHDLTNVDVIGIDEVQFFDDEIVSIVEKLSADGHRVIVAGLDMDFRGEPFEPMPKLMAVSEQVTKLQAVCAVCGSSSSRTQRLINGKPAKIDDPIILVGANESYEPRCRAHHIVAPSDNNKEEL", "values": [{"measurement": "soluble on expression in E. coli", "value": "soluble"}]}
{"sequence": "MFWRSIPSLQTLLAAGMGLLMLEIVMAHQPAQAESCTVDPFGSEVCLPDSTPEEPDKPKRSNQSKKSNKPDKSKRMVIVPSCFGPCTQFPPAPPYRQFQEVMEEAALKATPDATPEPRPAEPLRPLWFKSDQLDDVEAETYLERTLDRNDMAQLNAVGIEADTDADGMVITVDGLSYGEVLEPHGLLFTNEVNEPGLNAWVRGFGGGSSNGAAGDRYANFSNGGSQIGFDIPINDETRIGLFGTYAVMNGTDGARGSWDSDGWGGGAYAEYWTSDFYLRGMVSAGGYDGEHRRKIDGETAKGDRSGNSWTGVLNIGAPLQSGDWIIEPQAQLSYTNTSLDKFSEHGANRRDRLRFHEMEVDQLGSELSVKFAIPIRDGERSLLLPSLRVGWAADWGMSGDHQKVSYLESGKSQRWDVNGNDDHAALVELGLDYTTFNFQDTSMGVYARGGGLLWAGNRGTSWQVQGGLNFKF", "values": [{"measurement": "soluble on expression in E. coli", "value": "not soluble"}]}
{"sequence": "MLNRIIEHMNAHHVEDMKGLLKKFGQVHHAENVAFKSVDPQGIVIGYNHNQTLRIEFNHEVKDPKDYKNAIIELCQSVEKTHDLKGVEEEVKAFKESFDSVCLATLHPNGHVVCSYAPLMSDGKQYYIYVSEVAEHFAGLKNNPHNVEVMFLEDESKAKSAILRKRLRYKTNARFIERGAEFDKAFDSFIEKTGGAGGIKTIRAMQDFHLIALDFKEGRFVKGFGQAYDILGDKIAYVGDKGNPHNFAHKK", "values": [{"measurement": "soluble on expression in E. coli", "value": "not soluble"}]}
{"sequence": "MSRDTERYPVKHANSLWQIYKTVPFWKVVKNFVVIQLARYTPFVSVKNWLYRTFLKMDVGEKTAFALMVMPDIMFPERISVGRNSIIGYNTTILAHEYLIEEYRLGDVIIGDEVMVGANTTILPGVTIGDRAIIAAGTVVHKNVPPGAFVGGNPMQVIKQLEHHHHHH", "values": [{"measurement": "soluble on expression in E. coli", "value": "not soluble"}]}
{"sequence": "MSLSMSKRLLLFDFDETYFKHNTNEEDLSHLREMEKLLEKLTNNNEVMTAVLTGSTFQSVMDKMDQVNMTFKPLHIFSDLSSKMFTWNNGEYIESETYKKKVFSEPFLFEDIEDILRHISAQYNVEFIPQRAFEGNETHYNFYFHSTGNHSNDRRILEALVRYANDQNYTARFSRSNPLAGDPENAYDIDFTPSNAGKLYATQFLMKKYNIPVKSILGFGDSGNDEAYLSYLEHAYLMSNSRDEALKQKFRLTKYPYYQGITLHVKEFVEGKYDYEGHHHHHH", "values": [{"measurement": "soluble on expression in E. coli", "value": "soluble"}]}
{"sequence": "MIDMVVLTKEKIIEIIEEKTGMSREKIEEEIRRIMEEDPHLSEQGAAALLAERLGIDLIEREETSLMKISDLYPGMDPREVNIIGRVLKKYPVREYTKKDGSIGRVASLVIYDDSGRARVVLWDGKVAEYYNKIEVGDVIKVLDAQVRESLSGLPELHINFRARIILNPEDPRVDSIPPLEEVRIATYTRKKIGDIEPGDRFIEIRGTIAKVYRVLTYDACPECKKKVDYDPGTGVWICPEHGEVEPIKMTILDFGLDDGTGYIRVTLFGDDAEELLGVSSEEIAEKIKELENSGLTTKEAARKLAEEEFYKIIGKEIVVRGNVIEDRFLGLILRASSWEEVDYRKEIENIKEELEKLGVMLEHHHHHH", "values": [{"measurement": "soluble on expression in E. coli", "value": "not soluble"}]}
{"sequence": "MGSDKIHHHHHHMSVTNVTREELWAKQHLSCKNMDYAVWERDKSMLQKLSRINGGCSFVVDVYKGCYAYASTGFVDWLGYDRHKIETLEKQGDYLESRIHPHDRSQLEDLQVRLGKFIYNQPFEHRNDYCNVYSFRILNARGNYVRVTSRHQVLEQSHDGKAWLIIGNMSMAPGQKESEQVECTVLNLRNGEMFSPGVVIMNPAFGLTGREMEILRLIQRGFLSKEIADKLCISIHTVHIHRQNLLRKLGVQNSLEAIRLGQESGLLS", "values": [{"measurement": "soluble on expression in E. coli", "value": "not soluble"}]}
{"sequence": "MSLHWLNRNTRKGSQKNIAAHYDLGNTLFEQFLDPTMMYSAAQFLSNDDTLEQAQLNKLERICQKLALKPTDHLLEIGTGWGSMAIYAAQQYGCRVTTTTLSREQFAYTEQRLIKLGLQDRVTLLLTDYRDLTGEYDKLVSIEMIEAVGHRFLPTYFKQCASLLKSNGMMLLQAITIREQRYAQAKRNVDFIQRYIFPGGALPSVAKMLDIVGSDTDMNLLHMEDFGLHYARTLRLWHDNFKHAHGTLTELGYDDYFLRLWEFYLCYCEGGFLERTIGTAQLLLAKPDALREGHHHHHH", "values": [{"measurement": "soluble on expression in E. coli", "value": "not soluble"}]}
{"sequence": "IPLPEQPGGSSDFIAFTDKAKLTFTTSRPMKMVYTLDETEPTLTSTPYTVPLEFAQTGLLKIRTVTAGGKMSPVRRIRVEKQPFNMSMEVPAPKPGLTIRTAYGDLYDVPDLQQVASWEVGTVSSLEEIMHGKEKITSPEVLERRVVEATGYVLIPEDGVYEFSTENNEFWIDNVKLIDNVGEVKKFSRRNSSRALQKGYHPIKTIWVGAIQGGWPTYWNYSRVMIRLKGEEKFKPISSDMLFQ", "values": [{"measurement": "soluble on expression in E. coli", "value": "not soluble"}]}
{"sequence": "MKCRSKISLIAASLWLAAFSAQALEAKLKPEDLPLLVPEAQHATAAKRVTSRFTRSHYKQFNLDDQFSQAMFERYLEMLDYSRNIFTQADIDSFKAWSLQLDDQLKAGDNQIAYDLYNLSMEKRFERFQYALSLLDQEMTFDADESIELDRTKSPWPKDLKEINELWRQRVKYDALSLKLAGKEWPEIKETLDKRYNNAIKRLTQTKSEDVFQTYMNAFAREVDPHTSYLSPRNAEQFQSEMNLSLEGIGAVLQMTDDYTIIRSLVAGGPAALSKQLGEGDRIIGVGQEGEDVVDVVGWRLDDVVQLIKGPKGSKVKLLVLPEGKDAKSHVVTIVRDKIRLEDRAVKSEVIEKAGKKIGVLEVPSFYVGLAQDTEKLLAELKAKKVDGIIVDLRNNGGGALTEATALSGLFITSGPVVQVRDSYGRVNVNSDTDGSISYSGPMTVLINRYSASASEIFAAAMQDYGRAIILGENSFGKGTVQQHRSLNHIYDLFDKELGYVQYTIQKFYRIDGGSTQNKGVVPDIAYPTAIAPSETGESVEDNALPWDSIDKAKYERLNNFNTIIASLEAKHQQRVANDLEFGFIEQDIAKYRAEKDDNLLSLNEKVRKEESAKADEERLARINQRQKALGKSTYASLQDIPKDYEAPDAYLDESVNIMLDMISR", "values": [{"measurement": "soluble on expression in E. coli", "value": "not soluble"}]}
{"sequence": "MGSDKIHHHHHHVLIKSIKLTNILSFGEAAETIELRPLNVVIGPNGSGKSNLIAAIELFRALPKDAPAFFRREGGIHDWLWKGGEIPPVATIESVFDEKGPLSGLRYALRFTVVGQHFEIIEERIEEEAAEGAQTPPPYHFKDGRGALRALLANEGEIKAWSFVIPSEIDPTQSILAQRKDPHQYPELTSLGAVLPTMRCYREWTMGPQSPPRQDQKTDLRNDYLDPYGAGNLALVLQRLGNKPALKKRFLEALRLLYEGIDDYGVTIEGGTSQIFFHEGGRFTIPASRLSDGTLRYLCLLAILLDPAPPPLLCIEEPELGLHPDILPTLADLLKEASERTQVIVTTHSDGLVDAMTDRPEAVLIAEKNENGTTLTRLDGETLKPWLAKYRLGELWTRGGIGGTRW", "values": [{"measurement": "soluble on expression in E. coli", "value": "not soluble"}]}
{"sequence": "MAASMARLWWPFLARQGLRSRGRCVCSQNPRRSFATEKRVRNLLYEHAREGYSELPYLDMESVCACPEKAARSLELRKGELRPADLPAIISTWQELRQLREQIRSLEAEKEAVAEAVRALLANQDSDQVQKDPQYQGLRARGREIRKQLTPLYPQETQLEEQLYQQALRLPNQTHPDTPVGDESQARVVRVVGEKPAFSFQPRGHLEIGEKLDIIRQKRLSHVSGHRSYYLRGAGALLQHGLVNFTLSKLVSRGFTPMTVPDLLRGAVFEGCGMTPNANPSQIYNIDPSRFEDLNLAGTAEVGLAGYFMDHSVAFRDLPVRMVCASTCYRAETDTGKEPWGLYRVHHFTKVEMFGVTGPGLEQSSQLLDEFLSLQVEILTELGLHFRVLDMPTQELGLPAYRKFDIEAWMPGRGRYGEVTSASNCTDFQSRRLYIMFETETGELQFAHTVNATACAVPRVLIALLESNQQKDGSVLVPAALQPYLGTDRITAPTHVPLQYIGPNQPQKPRLPGQSATR", "values": [{"measurement": "soluble on expression in E. coli", "value": "soluble"}]}
{"sequence": "SNAMIKRPIHMSHDFLAEVLDDESIVVDATMGNGNDTAFLAGLSKKVYAFDVQEQALGKTSQRLSDLGIENTELILDGHENLDHYVREPIRAAIFNLGYLPSADKSVITKPHTTLEAIEKILDRLEVGGRLAIMIYYGHDGGDMEKDAVLEYVIGLDQRVFTAMLYQPLNQINTPPFLVMLEKLQ", "values": [{"measurement": "soluble on expression in E. coli", "value": "soluble"}]}
{"sequence": "MNRKIERMIIELEKECKAQNVELLLCATNFETGQGSTAFCGSVIGLAILLQKLVGDLKEQLSISESCDCPECVAEKAEDAANEKSMDELLTAFLRGELQ", "values": [{"measurement": "soluble on expression in E. coli", "value": "not soluble"}]}
{"sequence": "MGSDKIHHHHHHMFGLPGKKSSAVLGVDVSSSSVKLLELSKHGDRYKVESYAVEPLPANAVVEKNITDVEAVGEVLKRVASKSRTSVKQVAVAVSGSAVITKVIQMDGGLNEFEMEDQIALEADQYIPYPLDEVAIDFEVQGPSESNPDQVDVLLAACRKENVDIREDALEIAGLTTKIVDVEAYALERAYSLIEPQLDSQGEELVVAIVDIGATMTTLSVLAEGKTVYTREQIFGGKQLTEEIQRRYGLSLEEAGLAKKQGGLPDDYNEEVLTPFREAVVQQVARALQFFFGASQYNAVDYVVLAGGTASIQGLTEMVEEKTGTPTLVANPFANMAVGSRVNASALSNDAPSLMIACGLAMRSFD", "values": [{"measurement": "soluble on expression in E. coli", "value": "not soluble"}]}
{"sequence": "MTSTRHHRGARRALRHLTTTTAHARRAFSPADLRQLEAAVREGERRHRGEVRIVIEASLPVRDAWAGVTPRQRARTLFGLLEVWNTHEHVGVLLYLNLADHAVEILADRGIAARVEPHAWRAICETITHGFAQGVAIGPVLEALGQIHAVLAAHFPSDGAPRANELADKPLVLLEHHHHHH", "values": [{"measurement": "soluble on expression in E. coli", "value": "soluble"}]}
